Test results as given in US20110300113A1, “Death Receptor CD95 Controls Neurogenesis of Adult Neural Stem Cells in Vivo and in Vitro” (DEUTSCHES KREBSFORSCHUNGSZENTRUM, priority 2006, published 2011).

Experiments:
[1] = system: hippocampal NSCs; assay: β-III-tubulin expression in hippocampal neural progenitor cells; type: cell-based, mouse; details: neural progenitors isolated from the HC
Experimental: (§1) For staining of intracellular markers, cells were harvested, fixed with 4% PFA for 10 min on ice, washed and permeabilized using 0.1% Saponin (Sigma-Aldrich) in PBS with 10% FCS (SAP). Cells were incubated with primary antibody or isotype for 30 min on ice. Cells were washed three time with SAP and incubated with secondary antibody for 30 min on ice. Cells were washed again three times with SAP and analysed. Antibodies used were: anti β-III-tubulin (Chemicon) 1:100, anti GFAP (Chemicon) 1:100 and isotype mouse IgG1 (Sigma) 1:20. Secondary antibody was goat anti-mouse PE 1:100 (Dianova). To quantify DNA fragmentation, cells detached with trypsin were centrifuged, washed and fixed with 70% ethanol at −20° C. for 1 h. Fixed cells were resuspended in a hypotonic lysis buffer (0.1% sodium citrate and 0.1% Triton X-100) containing […] of propidium iodide, incubated at 4° C. overnight. After final washings, all samples were analysed using a FACS-Calibur (Becton Dickinson) and CellQuest Software (Becton Dickinson).
Mouse adult neural stem cell culture. NSCs were isolated as previously described^30. Briefly, 6 week old female C57BL6 mice were sacrificied and tissue from hippocampus, SVZ and spinal cord was dissected out. […]

[2] = biological target: T1, CD95 (Mus musculus, UniProt P25446); assay: Immunoprecipitation of CD95 / phosphotyrosine from stimulated NSCs; type: cell-based; details: NSCs or developing neurons
T1 construct: pp60 and p85 association to CD95 increased at 1 minutes and 5 minutes after stimulation of NSCs with 1 U CD95L-T4; endogenous in cells; host or cells: mouse adult neural stem cells (C57BL6)
T1 sequence (P25446 22-327): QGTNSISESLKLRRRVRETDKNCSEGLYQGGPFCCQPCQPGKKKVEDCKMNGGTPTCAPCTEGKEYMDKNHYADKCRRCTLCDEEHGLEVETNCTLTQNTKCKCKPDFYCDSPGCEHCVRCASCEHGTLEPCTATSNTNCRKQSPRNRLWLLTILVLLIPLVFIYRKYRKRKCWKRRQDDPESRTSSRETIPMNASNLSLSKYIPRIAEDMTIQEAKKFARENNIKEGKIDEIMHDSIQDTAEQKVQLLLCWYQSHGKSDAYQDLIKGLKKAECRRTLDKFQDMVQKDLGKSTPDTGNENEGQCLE
Experimental: Immunoprecipitation. 2×10^7 cells were either treated with 1 activation unit (5-40 ng/ml depending on the batch of CD95L-T4) or 5000 ng/ml CD95L-T4 for 1 and 5 minutes (unless otherwise indicated) at 37° C. or left untreated, washed twice in PBS plus phosphatase inhibitors (NaF, NaN3, pNPP, NaPPi, β-Glycerolphosphate, 10 mM each and 2 mM orthovanadate), and subsequently lysed in buffer A (20 mM Tris/HCl, pH 7.5, 150 mM NaCl, 2 mM EDTA, 1 mM phenylmethylsulfonyl fluoride, protease inhibitor cocktail (Roche), 1% Triton X-100 (Serva, Heidelberg, Germany), 10% glycerol, and phosphatase inhibitors (NaF, NaN3, pNPP, NaPPi, 1′-Glycerolphosphate, 10 mM each and 2 mM orthovanadate) (stimulated condition) or lysed without treatment (unstimulated condition). Protein concentration was determined using BCA kit (Pierce). 1 mg of protein was immunoprecipitated overnight with either 5 μg anti-CD95 AB Jo2 or 5 μg anti-phospho tyrosine antibody (pTyr 4G10 (Upstate)) and 30 μl protein-A Sepharose. Beads were washed 5 times with 20 volumes of lysis buffer. The immunoprecipitates were mixed with 60 μl of Laemmli buffer and 30 μl were analyzed on either 15% or 7.5% SDS-PAGE. […]

[3] = system: NSCs; assay: Apoptosis and caspase activity in NSCs; type: cell-based, mouse
Experimental: as §1
Caspase Activity Assay. Apostat Intracellular Caspase Detection Caspase Activity Assay was purchased from R&D Systems. Assay was performed according to the manufacturers' instructions and analyzed using a FACSCalibur (Becton Dickinson) and CellQuest software (Becton Dickinson).

B1: CD95L: the ligand for CD95 (APO-1/Fas) (protein, listed as Homo sapiens)
chain: MQQPFNYPYPQIYWVDSSASSPWAPPGTVLPCPTSVPRRPGQRRPPPPPPPPPLPPPPPPPPLPPLPLPPLKKRGNHSTGLCLLVMFFMVLVALVGLGLGMFQLFHLQKELAELRESTSQMHTASSLEKQIGHPSPPPEKKELRKVAHLTGKSNSRSMPLEWEDTYGIVLLSGVKYKKGGLVINETGLYFVYSKVYFRGQSCNNLPLSHKVYMRNSKYPQDLVMMEGKMMSYCTTGQMWARSSYLGAVFNLTSADHLYVNVSELSLVNFEESQTFFGLYKL
modifications: CHAIN (1)..(281) This feature is the amino acid sequence for CD95L protein. CD95L is a ligand for CD95. CD95 is APO-1/Fas and a member of the tumor necrosis factor receptor superfamily.
β-III-tubulin expression [1]: increase in β-III-tubulin expression
FADD recruitment to CD95 [2]: did not induce efficient recruitment of the adaptor molecule FADD
apoptosis [3]: could not detect apoptosis
